Experimental data published in publication PMC11425217, “CCDC68 Maintains Mitotic Checkpoint Activation by Promoting CDC20 Integration into the MCC” (Advanced Science, 2024).

B1: MBP‐CCDC68‐Full length (FL) (natural protein, human (cDNA from HEK293T cells), UniProt Q9H2F9 1-335, looked up)
chain: MTTVTVTTEIPPRDKMEDNSALYESTSAHIIEETEYVKKIRTTLQKIRTQMFKDEIRHDSTNHKLDAKHCGNLQQGSDSEMDPSCCSLDLLMKKIKGKDLQLLEMNKENEVLKIKLQASREAGAAALRNVAQRLFENYQTQSEEVRKKQEDSKQLLQVNKLEKEQKLKQHVENLNQVAEKLEEKHSQITELENLVQRMEKEKRTLLERKLSLENKLLQLKSSATYGKSCQDLQREISILQEQISHLQFVIHSQHQNLRSVIQEMEGLKNNLKEQDKRIENLREKVNILEAQNKELKTQVALSSETPRTKVSKAVSTSELKTEGVSPYLMLIRLRK
notes: CCDC68, full-length cDNA amplified from HEK293T cell cDNA; Vector pCold‐MBP; also called MBP‐CCDC68‐FL; source: E. coli BL21, purified (Amylose Beads, eluted with maltose)
B2: Purified CCDC68 (recombinant, from bacteria) (natural protein, human (cDNA from HEK293T cells), UniProt Q9H2F9 1-335, looked up)
chain: B1 chain
notes: CCDC68, full-length cDNA amplified from HEK293T cell cDNA; The legend names no limits; also called recombinant CCDC68; source: E. coli BL21, purified (eluted by cleaving the tag with PreScission protease)

Legend:
[1] = molecular target: T1, GST‐CDC20 (human (cDNA from HEK293T cells), UniProt Q12834 1-499); test: pull-down; purified MBP, MBP‐CCDC68‐FL or MBP‐CCDC68‐Δ280–300 incubated with GST‐CDC20; Coomassie staining and immunoblot; details: both partners purified
T1 construct: CDC20, full-length cDNA amplified from HEK293T cell cDNA; The legend names no limits; source: E. coli BL21, purified (Glutathione Sepharose 4B)
T1 sequence (Q12834 whole entry): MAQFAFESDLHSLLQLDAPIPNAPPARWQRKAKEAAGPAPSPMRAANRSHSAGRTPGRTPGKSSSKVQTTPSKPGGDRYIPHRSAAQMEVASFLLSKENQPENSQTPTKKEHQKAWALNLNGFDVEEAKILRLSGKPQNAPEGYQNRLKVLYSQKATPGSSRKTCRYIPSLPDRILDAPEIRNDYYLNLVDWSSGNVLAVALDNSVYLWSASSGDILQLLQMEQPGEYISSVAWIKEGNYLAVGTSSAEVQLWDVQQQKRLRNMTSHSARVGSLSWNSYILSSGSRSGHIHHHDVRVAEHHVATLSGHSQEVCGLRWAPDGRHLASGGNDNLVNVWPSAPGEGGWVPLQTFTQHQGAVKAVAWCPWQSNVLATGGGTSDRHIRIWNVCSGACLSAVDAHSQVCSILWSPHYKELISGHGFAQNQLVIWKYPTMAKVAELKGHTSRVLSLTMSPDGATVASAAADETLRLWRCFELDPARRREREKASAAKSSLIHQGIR

[2] = molecular target: T1, GST‐CDC20; test: pull-down; purified CCDC68 (50 nM) incubated with GST or the GST fusion protein; Coomassie staining and immunoblot; details: both partners purified

Row | Binder | binding result [1] | binding result [2]
1 | B1 | binds | –
2 | B2 | – | binds
